The text below walks through data of patent US20110230406A1 (ADVANCED TECHNOLOGIES AND REGENERATIVE MEDICINE, published 2011).

No end group written: not given here.

The target in test [1] is T1, rhBMP-2 (R&D Systems, Item number 355-BM/CF) (human, UniProt P12643 283-396).
T1 construct: Coupled to a CM4 chip by EDC/NHS in SPR; also called human recombinant BMP-2
The experiment in a line: SPR (Biacore S51), rhBMP-2 on CM4 chip, peptide at 5 micromolar, 1:1 Langmuir fit, N=3. As to the method:
Peptide binding affinity to BMP-2 was evaluated for SEQ ID NO: 3 and SEQ ID NO: 6 by surface plasmon resonance measurements. Measurements were performed on a Biacore S51 (Biacore Life Sciences, Piscataway, N.J.) instrument using a CM4 Series-S sensor chip. rhBMP-2 (R&D Systems, Minneapolis, Minn., Item number 355-BM/CF) was immobilized on the sensor chip using 1-ethyl-3[3-dimethylaminopropyl]carbodiimide hydrochloride (EDC)/N-hydroxysuccinimide (NHS) coupling chemistry. […] Data were fit to a 1:1 Langmuir binding model using Biacore Analysis Software (Biacore Life Sciences, Piscataway, N.J.).
The data shown in Table 2 are average equilibrium dissociation constants with an N value of 3.

The target in test [2] is T2, biotinylated BMP-2 (R&D Systems, Item number 355-BM/CF) (human, UniProt P12643 283-396, biotinylated (sites not given)).
T2 construct: Bought protein, biotinylated, captured on streptavidin plates (phage ELISA) or streptavidin donor beads (ALPHA); also called bone morphogenic protein-2
The experiment in a line: ALPHA, biotinylated BMP-2 at 0.825 micrograms/mL, Ni-acceptor and streptavidin-donor beads. How it is done:
Diluted stock of biotinylated BMP-2 (R&D Systems, Minneapolis, Minn., Item number 355-BM/CF) at 3.3 micrograms/ml was prepared in 2× assay buffer (PBS, 0.01% Tween-80, 0.05% BSA). Chemically synthesized peptides having SEQ ID NO: 1, SEQ ID NO: 2, SEQ ID NO: 3, and SEQ ID NO: 6 were prepared using standard, automated Fluorenylmethyloxycarbonyl (Fmoc) solid phase peptide synthesis procedures. Each peptide solution for the assay was prepared from a 100 microgram/mL stock solution. The stock solution was serially diluted in ½ log steps in assay buffer resulting in peptide concentrations of 100, 33.3, 11.1, 3.70, 1.23, 0.41, 0.14, 0.046, 0.015, 0.0051, 0.0017 and 0.00056 micrograms/mL. Subsequently, serially diluted peptides were added to the corresponding wells containing the 10 microliters of the 3.3 microgram/mL solution of biotinylated BMP-2. Final assay test concentration for biotinylated BMP-2 was 0.825 micrograms/mL. Final peptide concentrations were 25, 8.3, 2.8, 0.93, 0.31, 0.10, 0.03, 0.01, 0.003, 0.001, 0.0003 and 0.0001 micrograms/mL. Next, Nickel (Ni)-acceptor and streptavidin (SA)-donor beads (Perkin Elmer, Waltham, Mass., Item number 6760619M) were diluted 1:100 in assay buffer prior to adding 20 microliters to each test well. […] The emission of the plate was read using a dual wavelength fluorometer (Perkin Elmer (Waltham, Mass.) Envision 2101 Multilabel Reader).

Test [3] has as its target T3, human serum albumin (human, UniProt P02768 25-609).
T3 construct: Cross-reactivity control coated at 5 micrograms/mL; also called HSA
Description: phage ELISA, HSA-coated wells, HRP anti-M13 antibody, luminescence. As to the method:
(§1) 96-well black ELISA plates were coated with streptavidin (Rows A through D), hIgG (Rows E and F) and human serum albumin (Rows G and H), at a concentration of 5 micrograms/mL in PBS. Plates were incubated overnight at 4° C. Plates were washed 3 times with TBST using a plate washer. To the streptavidin-coated wells in rows C and D, 100 microliters of a 4 micrograms/mL solution of biotinylated-BMP-2 (R&D Systems, Minneapolis, Minn., Item number 355-BM/CF), was introduced and allowed to sit at room temperature for 30 minutes. To all other wells, 100 microliters of PBS was introduced. The plates were again washed 3 times with TBST using the plate washer. The wells were then blocked with 250 microliters of a 3% dehydrated milk suspension in TBST and allowed to sit at room temperature for a minimum of 1 hour. Using phage concentrations determined by the phage titrations, dilutions of the phage stock solutions were performed in a separate 96-well plate to result in phage concentrations of 10¹⁰, 10⁹, 10⁸, 10⁷, 10⁶ and 10⁵ phage/well. After blocking, the ELISA plate was washed 3 times with TBST and 100 microliters of the phage dilutions were introduced to the respective ELISA plates and allowed to sit at room temperature for a minimum of 1 hour. The ELISA plate was again washed 3 times with TBST using the plate washer and 100 microliters of an HRP-conjugated Anti-M13 Phage Mab (1:5000 dilution in PBS) was introduced to each well. The plates were allowed to sit at room temperature for 1 hour after which time the plates were washed 3 times with TBST. Next, a POD HRP-substrate was introduced to each well. The luminescence was read using a luminometer set with a gain of 150.
Background: In an ELISA, binding on a coated surface is turned into a signal by an enzyme label.

The target in the next test is Streptavidin. The experiment in a line: phage ELISA titration, streptavidin-coated wells without BMP-2, HRP anti-M13 antibody, luminescence. How it is done:
as §1, with “The ELISA plate was again washed 3 times with TBST using the plate washer and 100 microliters of an HRP-conjugated Anti-M13 Phage Mab (1:5000 dilution in PBS) was introduced to each well. The plates were allowed to sit at room temperature for 1 hour after which time the plates were washed 3 times with TBST. Next, a POD HRP-substrate was introduced to each well.” left out

The target in test [4] is T2, biotinylated BMP-2 (R&D Systems, Item …). Description: phage ELISA titration, biotinylated BMP-2 captured on streptavidin-coated wells, HRP anti-M13 antibody, luminescence. As to the method: as §1
The next test has as its target T4, human IgG (human).
T4 construct: Cross-reactivity control coated at 5 micrograms/mL; also called hIgG
Description: phage ELISA titration, hIgG-coated wells, HRP anti-M13 antibody, luminescence. As to the method:
as §1, with “The ELISA plate was again washed 3 times with TBST using the plate washer and 100 microliters of an HRP-conjugated Anti-M13 Phage Mab (1:5000 dilution in PBS) was introduced to each well. The plates were allowed to sit at room temperature for 1 hour after which time the plates were washed 3 times with TBST. Next, a POD HRP-substrate was introduced to each well.” left out

In test [5] the target is T3, human serum albumin. The experiment in a line: phage ELISA titration, HSA-coated wells, HRP anti-M13 antibody, luminescence. As to the method: as §1, with “The ELISA plate was again washed 3 times with TBST using the plate washer and 100 microliters of an HRP-conjugated Anti-M13 Phage Mab (1:5000 dilution in PBS) was introduced to each well. The plates were allowed to sit at room temperature for 1 hour after which time the plates were washed 3 times with TBST. Next, a POD HRP-substrate was introduced to each well.” left out

Test [6] concerns the target T2, biotinylated BMP-2 (R&D Systems, Item …). The experiment in a line: mutant phage ELISA titration on BMP-2 by the procedure of Example 3. As to the method:
as §1, with “To” for “96-well black ELISA plates were coated with streptavidin (Rows A through D), hIgG (Rows E and F) and human serum albumin (Rows G and H), at a concentration of 5 micrograms/mL in PBS. Plates were incubated overnight at 4° C. Plates were washed 3 times with TBST using a plate washer. To the streptavidin-coated wells in rows C and D, 100 microliters of a 4 micrograms/mL solution of biotinylated-BMP-2 (R&D Systems, Minneapolis, Minn., Item number 355-BM/CF), was introduced and allowed to sit at room temperature for 30 minutes. To”
The respective custom oligonucleotide was obtained from Integrated DNA Technologies. The oligonucletides were inserted into the pIX gene using standard protocols. First, the oligonucletides were phosphorylated using T4 polynucleotide kinase. Next, the phosphorylated oligonucletides were annealed to the ssDNA template. Using the Kunkel method, the annealed DNA was ligated using T4 DNA ligase and T7 DNA polymerase. The resultant DNA was isolated using isopropanol precipitation and a gel was run to confirm the reaction. Lastly, electro-competent E. coli cells were transformed with the purified DNA and were plated out onto 2xYT/Tet/Xgal agar plates and allowed to grow overnight to isolate single colonies. An aliquot of the transformed cells was allowed to grow overnight at 37° C. while shaking in 50 mL 2xYT/tet media. The phage were then PEG precipitated following the procedure in Example 1. A phage titration was performed to determine the concentration of phage for the ELISA assay as described in Example 2. ELISA assays were performed following the procedure in Example 3.

T2 sequence (P12643 283-396 limits assumed): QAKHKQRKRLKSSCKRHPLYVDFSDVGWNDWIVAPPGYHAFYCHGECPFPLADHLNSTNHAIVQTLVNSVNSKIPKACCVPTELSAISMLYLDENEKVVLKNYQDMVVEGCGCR
T1 sequence (P12643 283-396 limits assumed): as above

B1: chemically synthesized peptide having SEQ ID NO: 3 (peptide)
peptide: AGYTSFALLKSAESTLP
notes: Fmoc solid phase synthesis; used in ALPHA and SPR
One may read the Kd as the equilibrium constant for the complex coming apart. Low values mean a tighter complex, high ones a looser complex. Take B1: in test [1], binding was put at a Kd of 398 nM.

B2: chemically synthesized peptide having SEQ ID NO: 2 (peptide)
peptide: AGPPGPYIAASAFLALK
notes: Fmoc solid phase synthesis
Take B2: in test [2], the binding result is “binds”.

B3: chemically synthesized peptide having SEQ ID NO: 1 (peptide)
peptide: AGLPLQSMSRLSYDSLS
notes: Fmoc solid phase synthesis
Consider B3, for which the binding result in test [2] is “binds”.

B4: chemically synthesized peptide having SEQ ID NO: 6 (peptide)
peptide: AGRDSFNLLTSSPLPST
notes: Fmoc solid phase synthesis; used in ALPHA, SPR and the alkaline phosphatase assay
With B4, the Kd in test [1] is 303 nM.

B5: phage displaying the peptide of SEQ ID NO: 3 on the pIX minor coat protein (peptide)
peptide: AGYTSFALLKSAESTLP
modifications: also: displayed on phage pIX coat protein fusion
notes: not shown: pIX minor coat protein of the phage that carries the peptide
B5: the figures for the binding result with human serum albumin [3] and in the test with Streptavidin were “no binding (tested: 10^9 phage/mL)” and “no binding (tested: 1.00E+10 phage/well)”, respectively. For the same molecule, in test [4], the “EC50 (read off the curve)” value was around 1e+08 phage/well.

B6: phage displaying the peptide of SEQ ID NO: 4 on the pIX minor coat protein (peptide)
peptide: AGFRWWHTQPAHTLSYT
modifications: also: displayed on phage pIX minor coat protein, junction not given here
notes: as for B5
Take B6: the “EC50 (read off the curve)” value with human IgG was around 1e+08 phage/well. Further, the binding result (in the test with human serum albumin [5]; in test [4]) was “binds” in each case.

B7: phage displaying the peptide of SEQ ID NO: 7 on the pIX minor coat protein (peptide)
peptide: AGYRCSELPLYCST
modifications: cysteine pairing not given here; also: displayed on phage pIX minor coat protein
notes: as for B5
B7: the binding result in test [4] is recorded as “binds”.

B8: SEQ ID NO: 30 (peptide)
displayed peptide: AGRDSFNLSSSSPLPST
B8: the binding result in test [6] was “no binding (tested: 1.00E+10 phage/well)”.
